The values that follow come from patent US20250206843A1 (NATIONAL INSTITUTE FOR BIOTECHNOLOGY IN THE NEGEV, published 2025).

Assay [1] addresses T1, human epidermal growth factor receptor 2 (HER2), on cells (human, UniProt P04626 23-1255).
T1 construct: whole, on cells; Target of the flow cytometry and imaging experiments (HEK 293 cells expressing HER2; SkBr3 cells); also called ErbB2; HER2 receptor
Description: flow cytometry titration on SkBr3 HER2+ breast cancer cells. On the procedure:
(§1) FIGS. 6A-6D. Nb46 binding to HER2 cell-receptors by FACS analysis. […] The fluorescent signal was subtracted from that of cells incubated with the antibody alone and normalized relative to the highest signal (FIG. 6B), n=3. FIG. 6C—Affinity binding of NB46 with SkBr3 cells conducted with and without 1.8 mM Neuregulin-1 (NRG) following 1 hour incubation. Data was fitted with a sigmoidal curve in Excel (dashed lines), n=3.
(§2) Nb46 binding of HER2+ cancer cells—SkBr3 cells were grown to 70-90% confluency in T-75 flasks overnight. The cells were detached by aspirating the medium and washing cells with 10 mL hot PBS before pipetting 5 mL of non-enzymatic cell dissociation solution (Biological Industries, Beit Haemek, Israel) and incubating for 5 minutes at 37° C. […] The cells were Incubated for 1 h at 4° C. on a tubes rotator after which the cells were washed off of unbound Nb; cells were centrifuged at 350 g for 5 minutes, supernatant discarded, and cells resuspend in 900 μL of PBS-FBS, repeatedly for 3 times. After the 3rd centrifugation, the cells were resuspended in 300 μL PBS-FBS containing iFluor488-conjugated anti-camelid VHH (1:1000, Genescript, NJ, USA), and incubated for additional 1 h at 4° C. on a tubes rotator, in the dark. […]

The target in assay [2] is T1, human epidermal growth factor receptor …. In words: flow cytometry on SkBr3 cells in the presence of Neuregulin-1 (NRG; the legend prints 1.8 mM), anti-VHH-488 detection, n=3. How it is done: as §1, §2
Assay [3] concerns the target T2, human HER2-His extracellular-domain protein (human, UniProt P04626 23-652).
T2 construct: extracellular domain; Bought protein; also called recombinant HER2; not shown: His tag
Description: SPR, Biacore T200; HER2 immobilized (ligand), Nb46 as analyte. How it is done:
(§3) SPR binding assay—The affinity of Nbs to HER2 or HER3 was determined in two ways by using surface plasmon resonance (SPR) spectroscopy. SPR measurements were performed on a Biacore T200 instrument. In one layout, purified Nb38 (10 μg/ml) and Nb46 (20 μg/ml) were immobilized on a CM5 chip using an amine coupling kit (GE Healthcare, Chicago, IL). The analytes, human HER2-His or HER3-His extracellular-domain proteins (R&D systems, Minneapolis, MN) dissolved in PBST (PBS supplemented with 0.05% Tween-20 v/v), were flown at 30 μl/min, and the chip was regenerated using 2 mM NaOH. In a second layout, the purified human HER2-His or HER3-His extracellular-domain proteins, at 10 μg/ml, were immobilized on a CM5 chip). The analytes, NB46 and NB38 (and NB7 as a negative control), were flown at 30 μl/min in PBST, and the chip was regenerated using 20 mM glycine. Binding was allowed for 180 s and dissociation for 600 s. Curves were fitted using Biacore's evaluation software using a 1:1 ligand:analyte binding model to retrieve association rate constants (ka), dissociation rate constants (kd), and equilibrium dissociation constants (KD, a measurement of affinity).

Assay [4] addresses T1, human epidermal growth factor receptor …. In words: flow cytometry on HEK 293 cells expressing HER2, anti-VHH-488 detection, n=3. How it is done: as §1
Assay [5] concerns the target T2, human HER2-His extracellular-domain …. In words: SPR, Biacore T200; average of the two orientations; average of the two orientations. On the procedure: as §3
For assay [6] the target is unchanged. In words: SPR, Biacore T200; Nb46 immobilized (ligand), HER2 as analyte. On the procedure: as §3
Assay [7] addresses T1, human epidermal growth factor receptor …. In words: flow cytometry on SkBr3 cells without Neuregulin-1, anti-VHH-488 detection, n=3. On the procedure:
as §1, §2

For assay [8] the target is unchanged. Description: flow cytometry on HEK 293 cells expressing HER2, anti-VHH-488 detection, signal normalised to the highest signal, n=3. On the procedure: as §1
In assay [9] the target is T2, human HER2-His extracellular-domain …. In words: SPR, Biacore T200; average of the two orientations. On the procedure:
as §3

Assay [10] deals with T3, human HER3-His extracellular-domain protein (human, UniProt P21860 20-643).
T3 construct: extracellular domain; Bought protein; not shown: His tag
In words: SPR, Biacore T200, both orientations. On the procedure:
as §3

The target in assay [11] is T4, HER2 and HER3 co-expressed on cells (HER2/3) (human, UniProt P04626 23-1255; P21860 20-1342).
T4 construct: whole, on cells; Dubca camel fibroblasts in the periplasmic ELISA screen; also called HER2/HER3
In words: flow cytometry on HEK 293 cells expressing HER2 and HER3, anti-VHH-488 detection, n=3. How it is done: as §1

Assay [12] addresses T2, human HER2-His extracellular-domain …. Description: SPR, Biacore T200; HER2-His ECD immobilized, Nb46 as analyte; HER2 immobilized, Nb46 as analyte. On the procedure:
as §3

The target of assay [13] is T4, HER2 and HER3 co-expressed on cells …. In words: flow cytometry on HEK 293 cells expressing HER2 and HER3, anti-VHH-488 detection, signal normalised to the highest signal, n=3. How it is done: as §1
In assay [14] the target is T5, human HER3, on cells (human, UniProt P21860 20-1342).
T5 construct: whole, on cells; also called ErbB3
In words: flow cytometry on HEK 293 cells expressing HER3, anti-VHH-488 detection, n=3.

In assay [15] the target is T2, human HER2-His extracellular-domain …. In words: SPR, Biacore T200; Nb46 immobilized, HER2-His ECD as analyte; Nb46 immobilized, HER2 as analyte. How it is done:
as §3

Assay [16] deals with T1, human epidermal growth factor receptor …. In words: flow cytometry on SkBr3 cells, Nb46-AF647 detected with secondary anti-VHH-488 antibody. On the procedure:
as §1, §2

The target of assay [17] is T5, human HER3, on cells. Description: flow cytometry on cells expressing HER3.
Assay [18] deals with T4, HER2 and HER3 co-expressed on cells …. Description: flow cytometry on cells co-expressing HER2 and HER3.
Assay [19] has as its target T1, human epidermal growth factor receptor …. In words: flow cytometry on cells expressing HER2.

T5 sequence (P21860 20-1342): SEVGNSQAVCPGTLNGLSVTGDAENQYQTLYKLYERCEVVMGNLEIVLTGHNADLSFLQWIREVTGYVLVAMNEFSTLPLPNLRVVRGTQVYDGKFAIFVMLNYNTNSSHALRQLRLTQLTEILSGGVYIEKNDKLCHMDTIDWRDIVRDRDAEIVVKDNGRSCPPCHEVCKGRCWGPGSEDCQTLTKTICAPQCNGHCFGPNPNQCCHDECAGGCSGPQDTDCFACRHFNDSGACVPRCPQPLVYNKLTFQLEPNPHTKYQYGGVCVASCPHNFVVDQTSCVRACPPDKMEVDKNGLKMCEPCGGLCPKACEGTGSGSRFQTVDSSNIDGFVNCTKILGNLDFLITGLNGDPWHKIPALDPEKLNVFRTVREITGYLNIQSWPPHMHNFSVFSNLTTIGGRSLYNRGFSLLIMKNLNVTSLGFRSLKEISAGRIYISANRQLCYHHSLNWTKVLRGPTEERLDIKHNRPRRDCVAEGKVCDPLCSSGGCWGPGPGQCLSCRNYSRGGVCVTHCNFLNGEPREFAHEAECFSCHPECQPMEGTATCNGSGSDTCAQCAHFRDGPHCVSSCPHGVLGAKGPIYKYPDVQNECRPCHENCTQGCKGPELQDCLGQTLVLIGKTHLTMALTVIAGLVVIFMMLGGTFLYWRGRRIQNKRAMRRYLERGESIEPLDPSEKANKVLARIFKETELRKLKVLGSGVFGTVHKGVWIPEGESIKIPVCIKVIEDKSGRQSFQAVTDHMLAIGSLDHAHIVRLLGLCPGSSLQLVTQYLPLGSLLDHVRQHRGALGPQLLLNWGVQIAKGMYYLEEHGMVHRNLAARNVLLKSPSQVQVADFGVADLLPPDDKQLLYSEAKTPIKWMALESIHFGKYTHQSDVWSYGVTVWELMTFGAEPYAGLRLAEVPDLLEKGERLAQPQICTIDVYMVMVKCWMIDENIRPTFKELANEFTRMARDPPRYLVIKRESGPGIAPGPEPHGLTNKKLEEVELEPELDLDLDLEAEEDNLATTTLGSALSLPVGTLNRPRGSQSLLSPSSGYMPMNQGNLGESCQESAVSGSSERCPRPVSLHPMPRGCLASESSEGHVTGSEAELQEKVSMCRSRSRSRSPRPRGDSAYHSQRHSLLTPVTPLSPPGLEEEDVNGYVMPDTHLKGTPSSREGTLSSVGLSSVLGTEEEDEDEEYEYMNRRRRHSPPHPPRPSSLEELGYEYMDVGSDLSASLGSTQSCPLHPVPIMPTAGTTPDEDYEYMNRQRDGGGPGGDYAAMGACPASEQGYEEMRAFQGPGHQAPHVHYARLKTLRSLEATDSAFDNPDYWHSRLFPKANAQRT
T3 sequence (P21860 20-643): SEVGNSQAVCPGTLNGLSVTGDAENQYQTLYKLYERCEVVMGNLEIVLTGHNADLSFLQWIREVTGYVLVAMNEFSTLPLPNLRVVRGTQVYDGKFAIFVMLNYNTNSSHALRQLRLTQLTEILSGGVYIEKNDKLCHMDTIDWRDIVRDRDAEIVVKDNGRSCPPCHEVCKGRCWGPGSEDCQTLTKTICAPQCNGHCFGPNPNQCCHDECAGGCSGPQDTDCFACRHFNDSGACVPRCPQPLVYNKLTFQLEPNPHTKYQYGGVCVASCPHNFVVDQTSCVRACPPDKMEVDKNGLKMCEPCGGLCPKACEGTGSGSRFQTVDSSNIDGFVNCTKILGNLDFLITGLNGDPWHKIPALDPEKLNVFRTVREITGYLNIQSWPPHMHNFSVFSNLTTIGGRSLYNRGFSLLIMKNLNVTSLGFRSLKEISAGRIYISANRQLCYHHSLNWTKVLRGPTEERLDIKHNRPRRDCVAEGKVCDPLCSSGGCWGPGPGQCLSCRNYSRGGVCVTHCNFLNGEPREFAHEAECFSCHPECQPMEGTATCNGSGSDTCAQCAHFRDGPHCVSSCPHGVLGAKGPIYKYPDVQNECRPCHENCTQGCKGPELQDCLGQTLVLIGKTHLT

B1: Nb46 (VHH)
VHH: QVQLQESGGGSVQAGGSLRLSCVVSGYFYYDHYYVAWFRQAPGKEREGVALINGRDSDTYYADSVKGRFTISQDSAKNTVYLQMNSLKPEDTAIYYCAANPGEAFTVLPPRVFRNWGQGTQVTVSS
notes: also called N46
On to B1, for which the Kd in assay [1] was determined as 0.8 nM; in [5], 0.21 nM; in assay [12] it was 0.24 nM; in [15] it was 0.17 nM. Besides, the “EC50 (read off the curve)” value in [2] was roughly 0.8 nM; in assay [4], roughly 0.8 nM; in [7] it was roughly 0.9 nM; in [8], roughly 0.8 nM; in assay [11], roughly 0.9 nM; in [13], roughly 0.8 nM. Moreover, the koff is 0.00154 s⁻¹ in [3], 0.00221 s⁻¹ in assay [6] and 0.00187 s⁻¹ in assay [9]. The kon is 6.26e+06 M⁻¹ s⁻¹ in assay [3], 1.26e+07 M⁻¹ s⁻¹ in [6] and 9.42e+06 M⁻¹ s⁻¹ in assay [9]. The binding result in assay [10] is “no binding”; with human HER3, on cells [14] it was “no binding (tested: 25 nM)”.

B2: Nb46-AF647 (VHH)
VHH: B1 VHH
modifications: Alexa Fluor 647 (NHS ester), approximately 1 mole dye/mole NB; labelled residue not stated
notes: also called N46-Af647
Regarding B2, the binding result in [16] is given as “binds”.

B3: Nb38 (VHH)
VHH: QVQLQESGGGSVQAGGSLKLSCVASGFTRSMGWARQAPGKEREGVVCINNYNIGSGKWYADSVKGRFTISRDNDKNTVSLQMNSLKPEDTAIYYCAASPLYLCDNSSWFAAGFAAGSHVWGQGTQVTVSS
notes: Camel VHH expressed from pMECS (C-terminal HA and 6xHis tags) and purified on Ni-NTA; also called N38
In the case of B3, the binding result with human HER3, on cells [17] was “no binding”; in assay [18] it was “no binding”; in assay [19] it was “no binding”.
